From patent US20190185557 (published 2019) come the findings set out here.

The target in one experiment is T1, FcγRIIaH (human, UniProt P12318).
T1 chain: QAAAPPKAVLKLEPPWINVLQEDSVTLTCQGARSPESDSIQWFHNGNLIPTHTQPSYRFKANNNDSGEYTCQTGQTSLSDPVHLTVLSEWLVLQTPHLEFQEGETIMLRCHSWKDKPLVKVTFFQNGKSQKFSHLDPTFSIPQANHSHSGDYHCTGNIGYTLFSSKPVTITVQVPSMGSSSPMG
The experiment in a line: SPR.

The target of another experiment is T2, FcγRIa (human, UniProt P12314).
T2 chain: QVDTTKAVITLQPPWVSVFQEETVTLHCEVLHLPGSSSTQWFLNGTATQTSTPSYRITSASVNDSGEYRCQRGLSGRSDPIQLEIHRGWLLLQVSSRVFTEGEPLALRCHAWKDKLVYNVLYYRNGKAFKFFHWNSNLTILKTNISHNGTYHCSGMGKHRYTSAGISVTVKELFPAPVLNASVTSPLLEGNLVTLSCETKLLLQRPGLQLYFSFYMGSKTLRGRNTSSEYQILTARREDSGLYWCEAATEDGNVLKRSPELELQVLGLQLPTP
Kind of experiment: SPR. A general note: In SPR one partner is held on a chip, and binding of the other changes the refractive index at the surface.

Residue numbers refer to the chain shown, from its start.

B1: IL6R-BP507/IL6R-L (antibody)
chain 1: QVQLQESGPGLVKPSETLSLTCAVSGHSISHDHAWSWVRQPPGEGLEWIGFISYSGITNYNPSLQGRVTISRDNSKNTLYLQMNSLRAEDTAVYYCARSLARTTAMDYWGEGTLVTVSSASTKGPSVFPLAPSSKSTSGGTAALGCLVKDYFPEPVTVSWNSGALTSGVHTFPAVLQSSGLYSLSSVVTVPSSSLGTQTYICNVNHKPSNTKVDKKVEPKSCDKTHTCPPCPAPDLLGDDSVFLFPPKPKDTLMISRTPEVTCVVIDVAEEDGPVKFNWYVDGVEVHNAKTKPREEQYNSTYRVVSVLTVLHQDWLNGKEYKCKVSNKALPRPIEKTISKAKGQPREPQVYTLPPSRDELTKNQVSLTCLVKGFYPSDIAVEWESNGQPENNYKTTPPVLDSDGSFFLYSKLTVDKSRWQQGNVFSCSVMHEALHNHYTQESLSLSP
chain 2: not shown
Take B1: in the experiment with FcγRIIaH, the Kd came to 1800 nM.

B2: IL6R-BP445/IL6R-L (antibody)
chain 1: B1 chain 1 with P274E
chain 2: not shown
In the case of B2, binding with FcγRIIaH was characterised by a dissociation constant (Kd) of 1500 nM.

B3: IL6R-BP490/IL6R-L (antibody)
chain 1: B1 chain 1 with D235E, P274E
chain 2: not shown
Molecule B3 returned a Kd with FcγRIIaH of 2400 nM. This Kd is about 1.6-fold higher than that of the molecule before.

B4: IL6R-BP480/IL6R-L (antibody)
chain 1: B1 chain 1 with I266V, V268L, A269S, E271D, P274E, R332A
chain 2: not shown
On to B4, for which the affinity in the experiment with FcγRIa, expressed as Kd, was 13 nM.

B5: IL6R-BP506/IL6R-L (antibody)
chain 1: B1 chain 1 with Y298D
chain 2: not shown
Take B5: the Kd with FcγRIIaH was found to be 2500 nM.

What is called Kd is the concentration at which binding is half-saturated. A low value points to higher affinity.
